Consider 6 molecules from US20230391885A1 (INTEGRAL MOLECULAR, published 2023).

In assay [1] the target is T1, Claudin 18.2 (human) (human).
T1 construct: Multispanning membrane protein; also called hsCLDN18.2
Kind of assay: flow cytometry, antibody titration on HEK-293T cells transfected with human CLDN18.2. Background: In flow cytometry, cells or beads pass a laser one at a time.
From the text: (§1) Fluorescence was detected using an Intellicyt high-throughput flow cytometer (HTFC; Intellicyt, Albuquerque, NM).”).

The target of assay [2] is T1, Claudin 18.2 (human). The assay is described as follows: flow cytometry, antibody titration on HEK-293T cells transfected with hsCLDN18.2, APC-labelled anti-human secondary.
From the text: Fluorescence was detected using an Intellicyt high-throughput flow cytometer (HTFC; Intellicyt, Albuquerque, NM).
The target of assay [3] is T1, Claudin 18.2 (human). Kind of assay: cell binding (MFI), titration on cells with native Claudin 18.2; cell type and species not stated for this figure.
The target of assay [4] is T1, Claudin 18.2 (human). Kind of assay: biolayer interferometry (Octet Red), biotinylated hsCLDN18.2-VLPs on streptavidin tips, antibody in solution, 1:1 model; hsCLDN18.2 on biotinylated VLPs on the biosensor tip. A general note: In BLI a coated tip is dipped into the sample, and binding shifts an interference pattern.
Method: All biosensor studies were performed in PBS buffer supplemented with 1 mg/mL bovine serum albumin (BSA; PBS-B) at 25° C. using a ForteBio Octet Red biosensor system (Pall-ForteBio, Inc., Menlo Park, CA). […] Antibody binding and dissociation kinetics were determined for serial dilutions of antibody in PBS-B starting at 20 μg/mL. Antibody association was measured for 5 minutes followed by dissociation for up to 45 minutes in buffer. Non-specific binding was assessed using sensor tips with VLPs containing only endogenous proteins (Null VLPs). Data analysis was performed using the Octet data analysis program (v8.1; ForteBio) using a standard 1:1 binding model.
The target of assay [5] is T2, Claudin 18.2 (cynomolgus) (cynomolgus).
T2 construct: Expressed on transfected HEK-293T cells; also called cynomolgus CLDN18.2
T2 chain: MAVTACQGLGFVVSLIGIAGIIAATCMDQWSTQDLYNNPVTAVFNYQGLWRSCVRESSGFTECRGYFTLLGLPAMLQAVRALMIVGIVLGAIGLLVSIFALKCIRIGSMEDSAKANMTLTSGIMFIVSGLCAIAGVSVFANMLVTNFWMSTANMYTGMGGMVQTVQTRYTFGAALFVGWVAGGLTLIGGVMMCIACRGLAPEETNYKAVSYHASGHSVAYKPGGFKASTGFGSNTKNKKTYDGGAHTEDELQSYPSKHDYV
Kind of assay: flow cytometry, antibody titration on HEK-293T cells transfected with cynomolgus CLDN18.2.
From the text: as §1

Assay [6] addresses T3, Claudin 18.2 (mouse) (mouse, UniProt P56857 10-264).
T3 construct: Expressed on transfected HEK-293T cells; also called mouse CLDN18.2
T3 chain: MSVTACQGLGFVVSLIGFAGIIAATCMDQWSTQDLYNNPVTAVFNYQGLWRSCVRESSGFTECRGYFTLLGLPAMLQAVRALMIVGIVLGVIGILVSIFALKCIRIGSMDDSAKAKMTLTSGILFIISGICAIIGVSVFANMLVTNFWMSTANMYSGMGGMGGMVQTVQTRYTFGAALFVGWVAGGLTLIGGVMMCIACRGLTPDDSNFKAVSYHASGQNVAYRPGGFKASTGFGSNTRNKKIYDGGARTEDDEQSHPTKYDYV
Kind of assay: flow cytometry, antibody titration on HEK-293T cells transfected with mouse CLDN18.2.
From the text: as §1

Assay [7] deals with T2, Claudin 18.2 (cynomolgus). Kind of assay: flow cytometry, antibody titration on HEK-293T cells transfected with cynomolgus CLDN18.2.
From the text: as §1
The target in assay [8] is T1, Claudin 18.2 (human). Kind of assay: flow cytometry, antibody titration on HEK-293T cells transfected with human CLDN18.2. The source holds these as a separate data set.
From the text: as §1
For assay [9], the target named is T3, Claudin 18.2 (mouse). Kind of assay: flow cytometry, antibody titration on HEK-293T cells transfected with mouse CLDN18.2.
From the text: as §1
For assay [10], the target named is T1, Claudin 18.2 (human). The assay is described as follows: cell binding (MFI), titration on cells with native Claudin 18.2; cell type and species not stated for this figure. The source holds these as a separate data set.
Assay [11] concerns the target T2, Claudin 18.2 (cynomolgus). The assay is described as follows: flow cytometry, antibody titration on HEK-293T cells transfected with cynomolgus CLDN18.2.
From the text: as §1
The target in assay [12] is T3, Claudin 18.2 (mouse). Kind of assay: flow cytometry, antibody titration on HEK-293T cells transfected with mouse CLDN18.2.
From the text: as §1
Assay [13] deals with T1, Claudin 18.2 (human). Kind of assay: cell binding (MFI), titration on cells with native Claudin 18.2; cell type and species not stated for this figure. The source holds these as a separate data set.
Assay [14] has as its target T1, Claudin 18.2 (human). The assay is described as follows: biolayer interferometry (Octet Red), biotinylated hsCLDN18.2-VLPs on streptavidin tips, antibody in solution, 1:1 model.

Substitutions are numbered along the chain they refer to. Like-named read-outs stand apart in the source and are kept apart here.

What is called EC50 (read off the curve) is the concentration needed to bring the measured effect to its halfway point. High values mean a less potent agent, low ones a more potent agent. In general, Kd refers to a measure of binding affinity in units of concentration. A lower Kd goes with a tighter complex.

B1: MAb2 (IM-44-01E10-1HA) (antibody, V domains shown)
VH: EVQLLESGGGLVQPGGSLRLSCAASGFTFSSYGMSWVRQAPGKGLEWVAGIGSSGSDTWYADSVKGRFTISRDNSKNTLYLQMNSLRAEDTAVYYCAKDATNGYCWYTGRGSYSCGAHHIDAWGQGTLVTVSS
VL: SYELTQPPSVSVSPGQTARITCSGGSGSYGYYGWYQQKPGQAPVTVIYGTNKRPSGIPERFSGSSSGTTVTLTISGVQAEDEADYYCGGYDSSAGIFGGGTKLTVL
notes: Humanized antibody derived from a chicken scFv; tested as 'purified IgG' (bivalent); The general methods say candidate scFv were converted to human IgG1-Fc (scFv-Fc) format
On to B1, for which the “EC50 (read off the curve)” value in the assay with Claudin 18.2 (human) [1] was about 6 nM; in the assay with Claudin 18.2 (human) [2], about 4 nM; in the assay with Claudin 18.2 (human) [3] it was about 4 nM; in assay [5], about 4 nM; with Claudin 18.2 (mouse) [6] it was about 6 nM. The Kd in the assay with Claudin 18.2 (human) [4] came to 0.3 nM.

B2: monovalent form of MAb2 (other)
VH: B1 VH
VL: B1 VL
notes: also called MAb2 monovalent; monomeric MAb2
For B2, in the assay with Claudin 18.2 (human) [3], the “EC50 (read off the curve)” value was about 10 nM.

B3: MAb1 (IM-44-09B03-1H1B) (antibody, V domains shown)
VH: EVQLLESGGGLVQPGGSLRLSCAASGFTFSSYGMGWVRQAPGKGLEWVAAITRDSSTNYGAAVKGRATISRDNSKNTLYLQMNSLRAEDTAVYYCAKDASNGYCWYTGRGSYSCGAHHIDAWGQGTLVTVSS
VL: SYELTQPPSVSVSPGQTARITCSGGYNGHYGWYQQKPGQAPVTVIYSNNQRPSGIPERFSGSSSGTTVTLTISGVQAEDEADYYCGGYDSSAGIFGGGTKLTVL
notes: Humanized antibody derived from a chicken scFv; tested as 'purified IgG' (bivalent); The general methods say candidate scFv were converted to human IgG1-Fc (scFv-Fc) format; also called IM-44-09B03-1HB; IM-44-09B03-1HIB
Regarding B3, the “EC50 (read off the curve)” value in assay [7] was about 5 nM; with Claudin 18.2 (human) [2], about 5 nM; with Claudin 18.2 (human) [8], about 4 nM; with Claudin 18.2 (mouse) [9], about 4 nM; with Claudin 18.2 (human) [10], about 0.8 nM. In the assay with Claudin 18.2 (human) [4], the Kd worked out at 0.1 nM.

B4: MAb3 (IM-44-05H06-1HD) (antibody, V domains shown)
VH: EVQLLESGGGLVQPGGSLRLSCAASGFTFRSYAMMWVRQAPGKGLEWVGEISSTGGSTYYGSAVKGRATISRDNSKNTLYLQMNSLRAEDTAVYYCAKSTYGATWKSADSIDAWGQGTLVTVSS
VL: B3 VL with T43L
notes: as for B1
Regarding B4, the “EC50 (read off the curve)” value in assay [11] was about 9 nM; in the assay with Claudin 18.2 (mouse) [12], about 9 nM; with Claudin 18.2 (human) [13], about 3 nM. Moreover, in the assay with Claudin 18.2 (human) [4], binding was characterised by a dissociation constant (Kd) of 1.2 nM.

B5: monovalent form of MAb1 (other)
VH: B3 VH
VL: B3 VL
notes: also called MAb1 monovalent; monomeric MAb1
Consider B5, for which the “EC50 (read off the curve)” value with Claudin 18.2 (human) [10] is about 3 nM.

B6: zolbetuximab (antibody, V domains shown)
VH: QVQLQQPGAELVRPGASVKLSCKASGYTFTSYWINWVKQRPGQGLEWIGNIYPSDSYTNYNQKFKDKATLTVDKSSSTAYMQLSSPTSEDSAVYYCTRSWRGNSFDYWGQGTTLTVSS
VL: DIVMTQSPSSLTVTAGEKVTMSCKSSQSLLNSGNQKNYLTWYQQKPGQPPKLLIYWASTRESGVPDRFTGSGSGTDFTLTISSVQAEDLAVYYCQNDYSYPFTFGSGTKLEIK
In the assay with Claudin 18.2 (human) [14], B6 displayed a Kd of 0.3 nM.
